± gives the uncertainty stated by the source.

A short description of this data set: amyloid nucleation score (Sup35N fusion, yeast selection) (log enrichment); library NNK2; higher = more nucleation; inactive = no reads after selection. The method in brief: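 Plasmid inserts were Illumina-sequenced at input and output from psi-negative yeast expressing Sup35N fused to peptides of 20 random codons. The yeast were induced with 100 μM copper sulfate for 24 hours and grown 7 days at 30°C on medium lacking adenine and uracil, and sequences with under 100 input reads were excluded. Nucleation score is the DiMSum log enrichment of output over input reads, centred on the mode score of non-aggregating sequences.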
As to RVSCNRVRVYCWLVWRLIPN, the amyloid nucleation score result was “inactive”. The substance HVSNSFKSFCN came in with an amyloid nucleation score of 1.52 ± 0.2. Regarding LFVKTLGFLAVCASQ, the amyloid nucleation score turned out to be 0.609 ± 0.64. ELLIHDEYDILMCN displayed an amyloid nucleation score of 0.136 ± 0.36.

The substance TFPNLHFCFTLLLYKGCVCG had an amyloid nucleation score of -0.101 ± 1.1.

Substance VSSHNLMPNRNWMFETQLSW displayed an amyloid nucleation score of -0.297 ± 1.1. As for RNADI, the amyloid nucleation score was found to be 0.343 ± 0.46.

Take FRILFGFRCNLRGSSQVLIG: the amyloid nucleation score result is “inactive”. Consider NFFNFSDMYRYGNKIWGGAN, for which the amyloid nucleation score is 0.208 ± 1.1.

Substance SPVVKFRLLQSINLTHCY returned an amyloid nucleation score of 4.47 ± 0.05. Take CAGMWRFMGMVFGISTLFQC: the amyloid nucleation score is -1.44 ± 0.41. In the case of DTVYAF it was -0.651 ± 1.1; in that of NWDKKKGRDR, “inactive”. Take YQMISDSPNINIFYGFYSET: the amyloid nucleation score result is “inactive”. Take LCDWCVLS: the amyloid nucleation score entry is “inactive”. AITGGFSAFIRYYGVMYDVG registered an amyloid nucleation score of -0.736 ± 0.45. In the case of VDPHFFIRLFLEYHNVMSWY it was “inactive”; in that of CTVTK, 1.45 ± 0.11. For MFYLS the value was -0.476 ± 0.37. For FKFVGNSQAQVWNMCESNDS the value was -0.369 ± 0.64; for SYYDGCQS, 0.646 ± 0.49.

The substance RILLRRAKFGSR displayed an amyloid nucleation score of 0.432 ± 0.21. For TTLITVSVT, the amyloid nucleation score entry is “inactive”.

Consider HGGFRDFQSLSVPIRYDLYD, for which the amyloid nucleation score worked out at 1.14 ± 0.2. For SLPAENSFIEF the value was -1.25 ± 0.39; for YYSKNAVVWVNGCVRRVMII, 0.127 ± 0.63. The substance LIRSFNSSYVEGRHANI had an amyloid nucleation score of 2.69 ± 0.14. On to LKGSRNRATSDKGWKEG, for which the amyloid nucleation score amounted to 0.306 ± 0.8.

As for GIMLLSCFDCGGLSTLGHLA, the amyloid nucleation score came out at 7.56 ± 0.082. YVDVGC registered an amyloid nucleation score of 0.513 ± 0.52. For ESYTIDCRVFGLRGKGSTRA the value was 0.695 ± 0.46; for CRLLCVIGLYVDNLGPPLAR, -0.044 ± 0.35; for CFGVRDSGRYFDTLSNVRSR, 1.11 ± 0.68. Turning to MFERW, the amyloid nucleation score is -0.184 ± 0.56. NFNYFGWISQEIPPLLAGLS yielded an amyloid nucleation score of -0.509 ± 1.1. The substance KLCLGIGCRRQDTQAFGPPL came in with an amyloid nucleation score of 5.65 ± 0.083. For the substance GRPAAHAPSHPTRSVLGMS, the amyloid nucleation score amounted to 0.763 ± 0.47. In the case of YCGLFKGYVYRL it was -1.43 ± 0.55; in that of HILRQGQYGYVCCASASYEC, 7.312 ± 0.038.

As to IHGVFCEFVRIIRNVGSAIR, the amyloid nucleation score is -0.226 ± 0.35. As to RLSLNFDVRLC, the amyloid nucleation score stood at 1.21 ± 0.61. In turn, GNESDVSTIYKGDIPLLGVL registered an amyloid nucleation score of -1.05 ± 0.55. With RLLHYAFAFTARV, the amyloid nucleation score turned out to be 3.15 ± 0.068. The substance CAKGPKSWQNGNE registered an amyloid nucleation score of 0.626 ± 0.8.

In the case of LTLYSGVRCFSSYLP, the amyloid nucleation score stood at 0.012 ± 0.41. With LCGWHD, the amyloid nucleation score is 0.733 ± 0.47. For the substance VFWITAQMYY, the amyloid nucleation score was 2.18 ± 0.076. In the case of LIFFYSS it was -1.05 ± 1; in that of TYKFLSVFIDEFGQDFIMIW, -1.11 ± 0.43; in that of RDPVFIT, -1.44 ± 0.76.

Substance RGVYKHSPHLIT came in with an amyloid nucleation score of -0.127 ± 1.1. In the case of FKPYF it was “inactive”; in that of MGCLTVVRNLEFNRVCGRGD, -0.669 ± 0.49.

As to LAQLQ, the amyloid nucleation score was -0.504 ± 0.78. For KLYMCVIFYCLKGRLLVTYM the value was -1.18 ± 0.63. Turning to VRFIAR, the amyloid nucleation score entry is “inactive”.

As to VTTNWGSSVRNQAEGYRPSL, the amyloid nucleation score is -0.067 ± 0.42. For FIYIVAFPIREISGLSNL the value was “inactive”.

On to DCSMVIMYFASGRSRALSNR, for which the amyloid nucleation score was 4.48 ± 0.067. For ANTVHLKMLANSRSPDGTFR the value was 0.441 ± 0.32; for PSNKYSDVPSNAQSGFAWYG, 0.56 ± 0.57; for CCGGVRMMEELRCSTWSRVV, 0.868 ± 0.26. In turn, NINRAQHISDVSCPDENLCI yielded an amyloid nucleation score of 4.07 ± 0.11.

Turning to TLVHNFGCSLGHLKFRQNMW, the amyloid nucleation score is -0.33 ± 1.1. The substance GSESLNV showed an amyloid nucleation score of 0.887 ± 0.57. In turn, FLSKFSCEVKTPDLMSCGKG had an amyloid nucleation score of 4.04 ± 0.096. For DQYYNH, the amyloid nucleation score worked out at 0.29 ± 0.77.

FGWLALTKR had an amyloid nucleation score of -1.16 ± 0.34. For the substance ICKGRCVASGWV, the amyloid nucleation score was determined as 1.61 ± 0.14. In the case of IAMFT, the amyloid nucleation score was found to be 6.299 ± 0.044. AIYLWSF: the amyloid nucleation score came to 4.85 ± 0.054. For the substance DMVVMVYALLGPLQFECNK, the amyloid nucleation score is 0.888 ± 0.15. In turn, CLVKCAMPILVINICAG yielded an amyloid nucleation score of 7.82 ± 0.061. Consider HIHSKQIRVFNFSNFLEQIY, for which the amyloid nucleation score came out at 6.113 ± 0.033. Take SMSYDRWKAKS: the amyloid nucleation score is -0.446 ± 0.48.

LMNLVVG registered an amyloid nucleation score of -0.701 ± 0.44. As for FHVIGRR, the amyloid nucleation score turned out to be 0.951 ± 0.58. Consider LLFWLIRETRSLLSIYLVGT, for which the amyloid nucleation score is 0.198 ± 0.46. Turning to KGGLRISSLVTYM, the amyloid nucleation score stood at 0.274 ± 1.1.

In the case of KSCCDGRNYDKIPRVRSSRT, the amyloid nucleation score amounted to 0.206 ± 0.43. In the case of HWSFS it was 2.85 ± 0.17. On to CSWGCNDFRSCLALVMDCHA, for which the amyloid nucleation score was 1.02 ± 0.61.

RLAVVLVPRIGYSSKSSETR returned an amyloid nucleation score of 1.11 ± 0.34.

As for SVLANIMLVVVGNSGKYRSG, the amyloid nucleation score is 0.627 ± 0.74.

With WWLMWS, the amyloid nucleation score turned out to be 0.691 ± 0.53.

The substance CKLTRGSPMSYSEVR gave an amyloid nucleation score of -0.188 ± 0.29. With YSAFHSMENQTRKMFMEPLP, the amyloid nucleation score is -0.311 ± 0.79. The substance VLSEI displayed an amyloid nucleation score of 0.607 ± 0.25. For ILISIISFTKSCNISISLEW the value was -0.603 ± 1.1; for RLGRC, 0.94 ± 0.33; for FYAIGFLIGGLHFWDWHIWF, -0.189 ± 0.64.

Turning to GFWFLGCPLYYLVAIFKWII, the amyloid nucleation score result was “inactive”. For VRFSQKYCSVDIAMQRLFMV the value was -0.625 ± 0.25; for GPIYLWFSFKSRCQSSCHDV, -0.866 ± 0.48; for FIYSHYWWLWLYHTATVIPH, -1.45 ± 0.62. Take CQSRY: the amyloid nucleation score is -0.373 ± 1.1. Substance MVVDFVVYITVCSFRFKQTF registered an amyloid nucleation score of 1.97 ± 0.18.

NYKNVVSFLVR: the amyloid nucleation score result was “inactive”.

In the case of SVVSGWWVIIFLYSHGVSIE, the amyloid nucleation score was 0.093 ± 0.8. In the case of HIILIEGSMVCQTLVRGDLV it was 5.514 ± 0.042; in that of RKTLVGDNLNEGVKSWGWSR, -1.29 ± 0.45; in that of DRHIVLSHSSGNLSRLLLAL, 5.753 ± 0.055. SGSGNLFA displayed an amyloid nucleation score of -0.545 ± 0.45. HHHLRQVLGESQYLSCLWIK: the amyloid nucleation score came to 0.388 ± 0.47.

GYGDGILVSFSC returned an amyloid nucleation score of -0.986 ± 0.76.

Consider MRKWTVSGIRGGRN, for which the amyloid nucleation score was 0.879 ± 0.23.

Take LMIGSEDAMNYGCSCNPYLF: the amyloid nucleation score is -1.04 ± 0.33.

(Values after the supplement of paper PMC12042874.)
